Source: the Immune Epitope Database (IEDB)
Blank lines part the entries; values can stand above or below the sequence they belong to.

How the values were obtained:
[1] = target: HLA-A*69:01; test: IEDB peptide-MHC binding, purified MHC/direct/fluorescence; filed as Kd, often an IC50 or EC50 that approximates it; ≥ and ≤ were set here for values at or beyond the usual limits of such assays
[2] = target: HLA-A*26:01; test: IEDB peptide-MHC binding, purified MHC/competitive/radioactivity; filed as Kd, often an IC50 or EC50 that approximates it; ≥ and ≤ were set here for values at or beyond the usual limits of such assays
[3] = target: HLA-B*58:01; test: IEDB peptide-MHC binding, purified MHC/direct/fluorescence; filed as Kd, often an IC50 or EC50 that approximates it; ≥ and ≤ were set here for values at or beyond the usual limits of such assays
[4] = target: HLA-A*02:01; test: IEDB peptide-MHC binding, purified MHC/competitive/fluorescence; ≥ and ≤ were set here for values at or beyond the usual limits of such assays
[5] = target: HLA-B*15:01; test: IEDB peptide-MHC binding, purified MHC/direct/fluorescence; filed as Kd, often an IC50 or EC50 that approximates it; ≥ and ≤ were set here for values at or beyond the usual limits of such assays
[6] = target: HLA-A*30:01; test: IEDB peptide-MHC binding, purified MHC/competitive/radioactivity; filed as Kd, often an IC50 or EC50 that approximates it; ≥ and ≤ were set here for values at or beyond the usual limits of such assays
[7] = target: HLA-B*40:01; test: IEDB peptide-MHC binding, purified MHC/direct/fluorescence; filed as Kd, often an IC50 or EC50 that approximates it; ≥ and ≤ were set here for values at or beyond the usual limits of such assays; settings: source organism: Mycobacterium tuberculosis
[8] = target: HLA-A*02:01; test: as above
[9] = target: HLA-A*02:01; test: IEDB peptide-MHC binding, purified MHC/competitive/fluorescence; filed as Kd, often an IC50 or EC50 that approximates it; ≥ and ≤ were set here for values at or beyond the usual limits of such assays
[10] = target: HLA-B*07:02; test: IEDB peptide-MHC binding, purified MHC/direct/fluorescence; filed as Kd, often an IC50 or EC50 that approximates it; ≥ and ≤ were set here for values at or beyond the usual limits of such assays; settings: source organism: Homo sapiens
[11] = target: HLA-A*03:01; test: as above
[12] = target: HLA-A*02:03; test: IEDB peptide-MHC binding, purified MHC/competitive/radioactivity; filed as Kd, often an IC50 or EC50 that approximates it; ≥ and ≤ were set here for values at or beyond the usual limits of such assays
[13] = target: HLA-A*02:02; test: as above
[14] = target: HLA-A*02:06; test: as above
[15] = target: HLA-A*03:01; test: as above; settings: source organism: Dengue virus 1 Brazil/97-11/1997
[16] = target: HLA-A*11:01; test: as above; settings: source organism: Dengue virus 1 Brazil/97-11/1997
[17] = target: HLA-A*11:01; test: IEDB peptide-MHC binding, purified MHC/direct/fluorescence; filed as Kd, often an IC50 or EC50 that approximates it; ≥ and ≤ were set here for values at or beyond the usual limits of such assays; settings: source organism: SARS-CoV1
[18] = target: HLA-B*27:05; test: as above; settings: source organism: SARS-CoV1
[19] = source organism: Dengue virus 2 Jamaica/1409/1983
[20] = source organism: Vaccinia virus WR
[21] = source organism: Zaire ebolavirus
[22] = source organism: Vaccinia virus
[23] = source organism: Shigella boydii
[24] = source organism: Yersinia pestis
[25] = source organism: West Nile virus
[26] = source organism: Bacillus anthracis
[27] = source organism: SARS coronavirus Tor2

Sequence: NASQHPQQV
Kd ([1]; source organism: Salmonella enterica subsp. enterica serovar Typhimurium): 571 nM

Sequence: ETLQRKYGGA
Kd [2, 19]: 311 nM

Sequence: VSTAVAALF
Kd ([3]; source organism: Mycobacterium tuberculosis F11): 32.6 nM

Sequence: YVGDLCGSV
IC50 ([4]; source organism: Hepatitis C virus genotype 1): ≥ 50000 nM

Kd ([5]; source organism: Pseudomonas aeruginosa): 133 nM
Sequence: NQRETTVVW

Sequence: YVKFIYFIK
Kd [6, 20]: 60 nM

Sequence: HKIMASENS
IC50 [4, 21]: ≥ 253000 nM

Sequence: LEYDGFADF
Kd [7]: 42.4 nM

Sequence: LSNGMLRFA
IC50 [4, 22]: 5560 nM

Sequence: KLPRWIFFA
Kd [1, 23]: 951 nM
Kd [8, 23]: 1.5 nM

Sequence: AMLHWSLIL
Kd ([1]; source organism: Yellow fever virus 17D): ≥ 20000 nM

Sequence: NLWNGIVPT
Kd ([9]; source organism: Vaccinia virus Copenhagen): 0.2 nM

Kd [10]: 6180 nM
Kd ([3]; source organism: Homo sapiens): 210 nM
Kd ([5]; source organism: Homo sapiens): 572 nM
Sequence: VGYVDDTQF

Sequence: QLSDHPMVK
Kd ([11]; source organism: Vibrio parahaemolyticus): 146 nM

Sequence: RLDGTTLEV
IC50 ([4]; source organism: Mycobacterium leprae): 35 nM

Sequence: HIFYQLANV
Kd [6, 20]: 60.4 nM

Sequence: RYRCSFAVA
Kd [6, 20]: 0.00377 nM

Sequence: TVVPLMAFL
Kd ([9]; source organism: Bacillus cereus G9241): 48.5 nM

Sequence: FLEQGGFKA
Kd [1, 24]: 1990 nM
Kd [8, 24]: 64.3 nM

Sequence: SLARGFPFV
Kd [1, 25]: ≤ 1 nM
Kd [9, 25]: 1.23 nM

Sequence: DTGEESASS
IC50 [4, 21]: ≥ 425000 nM

Sequence: RTHTALIFL
Kd [6, 20]: 0.704 nM

Sequence: RLKVFLPNP
IC50 ([4]; source organism: Variola virus): 9430 nM

Sequence: LLYKQLNFT
Kd [1, 26]: ≥ 20600 nM
Kd [8, 26]: 1180 nM

Sequence: KHGEYAPFA
IC50 [4, 21]: 28300 nM

Kd ([11]; source organism: Escherichia coli): 209 nM
Sequence: GLGSFVARK

Sequence: SAMVQVHSQ
IC50 [4, 21]: ≥ 609000 nM

Sequence: GVFPVSIPIT
Kd [6, 19]: 7360 nM

Sequence: VLQQVSNGV
Kd ([1]; source organism: Mycobacterium tuberculosis): ≥ 20000 nM

Sequence: FIDNPLPNQ
IC50 ([4]; source organism: Sudan ebolavirus): 28100 nM

Sequence: FIPENQRTV
IC50 ([4]; source organism: Human alphaherpesvirus 1 strain 17): 4220 nM

Sequence: KVSPPSLGK
Kd [6, 20]: 1.12 nM

Sequence: RFLTIPPTA
Kd [6, 19]: 60.5 nM

Sequence: TSSDPGTNT
IC50 [4, 21]: ≥ 251000 nM

Sequence: EIPLQWIASA
Kd ([2]; source organism: Dengue virus 3 Martinique/1243/1999): 2620 nM

Sequence: NQDGLICGL
IC50 [4, 21]: 28400 nM

Sequence: KSLYSHQLV
Kd [6, 20]: 12.3 nM

Sequence: LFVVTLIPLC
Kd ([6]; source organism: Dengue virus 4 Philippines/H241/1956): 414 nM

Sequence: VMPEKRNVVV
Kd [12, 20]: 299 nM
Kd [13, 20]: 3540 nM
Kd [14, 20]: ≥ 27700 nM

Sequence: SILLSSLLK
Kd ([6]; source organism: Dengue virus 1 Brazil/97-11/1997): 2140 nM
Kd [15]: 8.01 nM
Kd [16]: 19.3 nM

Sequence: TGVGKTSQV
IC50 ([4]; source organism: Variola virus): 36100 nM

Sequence: LLSQYVDDA
IC50 [4, 22]: 23300 nM

Sequence: HIGHHYIWI
Kd [12, 20]: 899 nM
Kd [13, 20]: 2550 nM
Kd [14, 20]: ≥ 25300 nM

Sequence: ILASFSAST
Kd [12, 27]: 5.27 nM
Kd [13, 27]: 1.62 nM
Kd [14, 27]: 457 nM

Sequence: VTLNRIKIA
Kd [12, 20]: 407 nM
Kd [13, 20]: 13300 nM
Kd [14, 20]: 625 nM

Sequence: ALVSGTATA
Kd [12, 27]: 8.1 nM
Kd [13, 27]: 4.63 nM
Kd [14, 27]: 269 nM

Sequence: NLEELTTVFI
Kd [12, 20]: 6500 nM
Kd [13, 20]: 418 nM
Kd [14, 20]: 12300 nM

Sequence: VTSPLTGNNT
Kd [12, 20]: 2500 nM
Kd [13, 20]: 1450 nM
Kd [14, 20]: 5130 nM

Sequence: IPLGVIHNS
IC50 [4, 21]: ≥ 185000 nM

Sequence: RVLYDEFVTI
Kd [12, 20]: 178 nM
Kd [13, 20]: 153 nM
Kd [14, 20]: 6.62 nM

Sequence: FTDCRTIDAI
Kd [12, 20]: 12800 nM
Kd [13, 20]: 9440 nM
Kd [14, 20]: 751 nM

Sequence: DEAHFTDPAS
Kd [6, 19]: 13900 nM

Sequence: DQDTMLFASA
Kd [12, 20]: 663 nM
Kd [13, 20]: 891 nM
Kd [14, 20]: 1720 nM

Sequence: CVRLNNPVIL
Kd [12, 20]: 5400 nM
Kd [13, 20]: 8560 nM
Kd [14, 20]: ≥ 45100 nM

Sequence: KQSQSYLTK
Kd [6, 20]: 158 nM

Sequence: KMKELSPRW
Kd ([3]; source organism: SARS-CoV1): 420 nM
Kd ([5]; source organism: SARS-CoV1): 1200 nM
Kd ([11]; source organism: SARS-CoV1): 5750 nM
Kd [17]: ≥ 30200 nM
Kd [18]: 5250 nM

Sequence: YASLTTIGTI
Kd [12, 20]: 398 nM
Kd [13, 20]: 6290 nM
Kd [14, 20]: 83.6 nM

Kd [10]: 34 nM
Kd ([1]; source organism: Homo sapiens): 8380 nM
Sequence: RPASAGAML

Sequence: ITRLEVIGLT
Kd [12, 20]: 219 nM
Kd [13, 20]: 2210 nM
Kd [14, 20]: 967 nM
